Measured values from patent US20230181719A1, “NGR CONJUGATES AND USES THEREOF” (OSPEDALE SAN RAFFAELE S.R.L., priority 2020, published 2023).
Read-outs that look alike come from different tables or passages of the source.

Columns and labels:
GL261 glioblastoma [1] = assay type: in vivo, mice; details: i.p., 5 ng/kg at day 7, 19 and 31
Text: Effect of S-NGR-mTNF on the […] glioblastoma growth and animal body weight. C57BL/6J mice (9 weeks old, weighing 18-21 g) were intracranially implanted with 2.5 × 10^4 GL21-Luc2 cells.
C) Kaplan-Maier curves of vehicle and S-NGR-mTNF.
Inventors next investigated the antitumor activity of murine S-NGR-TNF (S-NGR-mTNF) in the GL261 glioblastoma model, one of the most frequently used syngeneic murine glioma models. To this aim, inventors have exploited GL261 cells genetically engineered to express luciferase (GL261-luc2). This allows in vivo visualization of tumors growth and response to treatment within the brain by bioluminescence imaging.

[2] = test system: RMA-T lymphoma-bearing mice; assay type: in vivo; details: high dose 2 µg and 6 µg
Description: FIG. 13. […] A) Effect of high-dose murine S-NGR-TNF or NGR-TNF on the body weight and tumor volume of RMA-T lymphoma- bearing mice. Six C57BL/6 mice (6-7 weeks old, weighing 18-20 g) were challenged with subcutaneous injection in the left flank of 5 ×10^4 RMA-T cells. Mice bearing RMA lymphomas (6 per group) were treated at day 11 after tumor implantation with 2 µg and 6 µg of murine NGR-TNF or S-NGR-TNF in 0.9% sodium chloride, containing 100 µg/ml endotoxin-free human albumin (i.p.) as indicated (arrows). Animal weights and tumor growth were monitored as indicated. B) Effect of melphalan alone or in combination with low-dose murine S-NGR-TNF on the body weight of RMA-T lymphoma-bearing mice.
To assess the impact of the additional serine residue added to the N-terminus of NGR-TNF on its toxicity and anti-tumor activity inventors injected high-dose NGR-TNF or S-NGR-TNF to mice bearing subcutaneous RMA-T lymphomas (n=6) and evaluated the loss of animal weight. […] Three days later the mice regained the original weight.

[3] = test system: endothelial EA.hy926 cells; experiment: EA.hy926 endothelial cell adhesion assay on protein-coated microtiterplates; assay type: cell-based
Description: FIG. 12. […] A) Adhesion of endothelial EA.hy926 cells to 96-wells microtiterplates coated with different amounts of murine TNF, NGR-TNF and S-NGR-TNF in 150 mM sodium chloride, 50 mM sodium phosphate buffer, pH 7.4 (PBS) (16 h). Each well was blocked with 2% BSA in PBS containing calcium chloride and magnesium chloride (DPBS, 30 min), seeded with 40.000 endothelial EA.hy926 cells in DPBS supplemented with 0.1% BSA (DPBS-B), and left to incubate for 2 h at 37° C., 5% CO2. After washing with DMEM-B, adherent cells were stained with crystal violet and quantified by spectrophotometric measurements at 570 nm. B) Microtiterplates pre-coated with 1 µg/ml of murine NGR-TNF or S-NGR-TNF in PBS (for 16 h) were incubated 0.1 M ammonium bicarbonate buffer, pH 8.5 (Ambic) at 37° C. for the indicated time to promote NGR deamidation. EA.hy926 cell adhesion assay was then performed as described above.
This behavior likely reflects a further improvement in the CNGRCG (SEQ ID NO: 1) stability when fused to TNF.

L-M cells = experiment: LM-cells cytolytic assay (MTT); assay type: cell-based; details: actinomycin D, 20 h, murine proteins
Text: FIG. 8. Biochemical and biological characterization of murine S-NGR-TNF and NGR-TNF. A) SDS-PAGE under reducing (βMe +) and non-reducing conditions (βMe -) of murine S-NGR-TNF, NGR-TNF and TNF. Arrows: bands corresponding to monomeric subunits (mon) and reducible dimers (dim). B) Representative mass spectra of murine NGR-TNF, TNF and S-NGR-TNF as determined by a Q Exactive HF mass spectrometer. Expected average masses are shown. C) Cytotoxic activity of TNF, NGR-TNF and S-NGR-TNF against L-M cells. L-M cells were incubated in DMEM medium supplemented with 2 mM glutamine, 100 U/ml penicillin, 100 µg/ml streptomycin, 0.25 µg/ml amphotericin-B, 10% fetal bovine serum, 2 µg/ml actinomycin D and TNF, NGR-TNF or S-NGR-TNF at the indicated doses (20 h at 37° C., 5% CO2). Cell viability was quantified by standard 3-(4,5-dimethylthiazol-2-yl)-2,5-diphenyltetrazolium bromide (MTT) assay. D) Binding of TNF, NGR-TNF and S-NGR-TNF to sTNF-R1 (Etanercept). Microtiterplates were precoated with or without the indicated amount of sTNF-R1 (for 16 h), washed with PBS, blocked with PBS containing 3% milk, 1% BSA (binding buffer, 1 h) and incubated with the indicated amounts of TNF, NGR-TNF or S-NGR-TNF diluted in binding buffer (for 1.5 h). The binding of each protein to sTNF-R1 was then detected using a polyclonal anti-murine TNF (IP301, 5 µg/ml in binding buffer, 1 h) followed by a polyclonal goat anti-rabbit antibody conjugated with horseradish peroxidase (1:1000 in binding buffer, 1 h) and o-phenylendiammine as chromogenic substrate.
To assess whether the addition of a serine residue to NGR-TNF affects its capability to recognize the TNF receptors and, consequently, its biological activity, inventors then analyzed the cytotoxic activity of TNF, NGR-TNF and S-NGR-TNF in the LM-cells cytolytic assay.

GL261 glioblastoma [4] = test system: GL261 glioblastoma
Description: Mice bearing GL21-Luc2 glioblastomas (9-10 per group) were treated at day 7, 14 and 21 after tumor implantation with the S-NGR-mTNF (5 ng/kg, about 100 pg/mouse, i.p.). Two hours later, mice were injected with the indicated dose of doxorubicin (doxo, i.p.). […] Tumor growth was monitored by measuring the tumor-associated bioluminescence at day 7, 11, 14, 18, 21, and 28 after the administration of luciferin.
Bioluminescent murine glioma GL21-Luc2 cells, engineered to stably express the firefly luciferase, were orthotopically implanted in C57BL/6J mice (9 weeks-old) into the right striatum (2.5x10^4 cells/mouse). Pharmacological treatments started on the 7 days after tumor cell implantation. Mice were injected, i.p., with 5 ng/Kg dose of S-NGR-TNF (about 100 pg/mice, diluted in 0.9% sodium chloride solution containing 100 µg/ml of HSA), or in combination with doxorubicin (5 mg/Kg) administered 2 h later. Tumor growth was monitored by non-invasive bioluminescence imaging using a PhotonImager RT system (Biospace Lab, France) after luciferase substrate administration (i.p.).
The antitumor activity of S-NGR-mTNF was then investigated in combination of doxorubicin (doxo), a chemotherapeutic drug, in the GL261-luc2 model. To this aims, tumor bearing-animal were treated at day 7, 14 and 21 post tumor implantation with S-NGR-mTNF (5 ng/kg, i.p.) and 2 h later with doxo (i.p., 5 mg/kg, corresponding to about 100 µg/mouse). In parallel, control mice were treated with vehicle or doxo alone.

WEHI-164 fibrosarcoma = experiment: Low-dose treatment in subcutaneous WEHI-164 fibrosarcoma murine model; assay type: in vivo
Description: FIG. 14. […] Balb/c mice (6-7 weeks old, weighing 18-20 g) were injected, s.c., with 1.5×10^6 WEHI-164 cells in the left flank and treated 5 days after tumor implantation (i.p.) with 25 or 50 pg of murine NGR-TNF or S-NGR-TNF in 0.9% sodium chloride, containing 100 µg/ml endotoxin-free human serum albumin (arrows). A) Tumor volumes after treatment (mean±SE, 6 mice per group). B) Tumor weight at day 15 (cumulative data of the two groups treated with 25 and 50 pg of drugs). *, P<0.05, **P<0.01 by unpaired t test of the area under the curve for each tumor (GraphPad Prism software).
To assess whether the addition of the Ser residue to NGR-TNF might affect its anti-tumor activity at low dose, inventors then analyzed the therapeutic activity of NGR-TNF and S-NGR-TNF (25 or 50 pg, i.p.) using the subcutaneous WEHI-164 fibrosarcoma murine model.

RMA lymphoma = assay type: in vivo, mice
Description: FIG. 15. […] C57BL/6 mice (6-7 weeks old, weighing 18-20 g) were challenged with subcutaneous injection in the left flank of 7×10^4 RMA cells. Mice bearing RMA lymphomas (6 per group) were treated 10-11 days (after tumor implantation with 100 pg of murine NGR-TNF or S-NGR-TNF (i.p.). Two hours later, the mice were injected with the indicated dose of melphalan (i.p.). All proteins were diluted with 0.9% sodium chloride, containing 100 µg/ml endotoxin-free human albumin. Tumor growth was monitored daily by measuring the tumors with calipers. A-B) Tumor volume change of two independent experiments are shown (mean±SE). […] C) Tumor bearing-animals were treated at day 10 after tumor implantation as indicated above using the indicated dose of S-NGR-TNF and the generic preparation of melphalan (Melphalan-Tillomed, from Tillomed Italia). RMA tumor weight at day 20 are shown (mean±SE). *, P<0.05, **P<0.01 by unpaired t test analysis with the GraphPad Prism software.
Effect of melphalan alone or in combination with low-dose murine S-NGR-TNF on the body weight and tumor growth of RMA-T lymphoma-bearing mice. Six tumor-bearing mice were injected with the indicated doses of S-NGR-TNF (i.p) and, two hours later, with the generic preparation of melphalan (Melphalan-Tillomed) (i.p.).
Finally, to assess whether low-dose S-NGR-TNF can exert synergistic effects with chemotherapy, as previously observed for NGR-TNF, inventors performed in vivo experiments with S-NGR-TNF and NGR-TNF in combination with melphalan, a chemotherapeutic drug, using the murine RMA lymphoma model (FIG. 15).

B1: S-NGR-TNF: Murine SCNGRCG-TNF fusion protein: serine residue added to the N-terminus of NGR-TNF (SEQ ID NO: 26) (protein)
chain: SCNGRCGLRSSSQNSSDKPVAHVVANHQVEEQLEWLSQRANALLANGMDLKDNQLVVPADGLYLVYSQVLFKGQGCPDYVLLTHTVSRFAISYQEKVNLLSAVKSPCPKDTPEGAELKPWYEPIYLGGVFQLEKGDQLSAEVNLPKYLDFAESGQVYFGVIAL
With B1 the “gain of body weight of cured animals” value (GL261 glioblastoma [1]) was “about +15%”, the tumor growth (GL261 glioblastoma [1]) was “significantly delayed tumor growth” and the “antitumor effects compared to NGR-TNF” value [2] was “slightly stronger antitumor effects”. For the same molecule, the “EA.hy926 cell adhesion to coated plates” value ([3]; plates coated in PBS, no forced deamidation) was “not”, the “EA.hy926 cell adhesion after forced deamidation” value ([3]; plates treated with 0.1 M ammonium bicarbonate buffer, pH 8.5, compared to NGR-TNF) was “a longer time of incubation under deamidation conditions was necessary” and the EC50 cytotoxic activity (L-M cells) was “very similar”. For the same molecule, the “mice with delayed tumor growth” value (GL261 glioblastoma [4]; S-NGR-mTNF 5 ng/kg i.p. and 2 h later doxo 5 mg/kg, day 7, 14, 21) was 55%, the “toxicity of doxo, judged from loss of animal weight” value (GL261 glioblastoma [4]; S-NGR-mTNF 5 ng/kg with doxo 5 mg/kg) was “did not exacerbate the toxicity of doxo” and the tumor growth (GL261 glioblastoma [4]; S-NGR-mTNF 5 ng/kg with doxo 5 mg/kg (combination therapy)) was “could significantly delay tumor growth”. For the same molecule, the “anti-tumor effects compared to 25 pg of NGR-TNF” value (WEHI-164 fibrosarcoma; 25 pg) was “slightly stronger anti-tumor effects”, the toxicity (WEHI-164 fibrosarcoma; 25 or 50 pg, i.p.) was “No evidence of toxicity” and the tumor growth (WEHI-164 fibrosarcoma; 25 or 50 pg, i.p.) was “delayed tumor growth to similar extent”. For the same molecule, the “efficacy of melphalan in combination” value (RMA lymphoma; 100 pg i.p., melphalan two hours later) was “could enhance the efficacy of melphalan”, the “antitumor activity of combination” value (RMA lymphoma; S-NGR-TNF 100 pg with melphalan 50 µg) was “significant increase of antitumor activity” and the “antitumor effect compared to NGR-TNF” value (RMA lymphoma; in combination with melphalan) was “slightly stronger antitumor effect”.
